Like-named read-outs stand apart in the source and are kept apart here.
Molecular target: endogenous RelA in A549 cells (Homo sapiens) (UniProt Q04206)
Settings: two-step ChIP

Sequence of endogenous RelA in A549 cells (Homo sapiens) (Q04206 whole entry): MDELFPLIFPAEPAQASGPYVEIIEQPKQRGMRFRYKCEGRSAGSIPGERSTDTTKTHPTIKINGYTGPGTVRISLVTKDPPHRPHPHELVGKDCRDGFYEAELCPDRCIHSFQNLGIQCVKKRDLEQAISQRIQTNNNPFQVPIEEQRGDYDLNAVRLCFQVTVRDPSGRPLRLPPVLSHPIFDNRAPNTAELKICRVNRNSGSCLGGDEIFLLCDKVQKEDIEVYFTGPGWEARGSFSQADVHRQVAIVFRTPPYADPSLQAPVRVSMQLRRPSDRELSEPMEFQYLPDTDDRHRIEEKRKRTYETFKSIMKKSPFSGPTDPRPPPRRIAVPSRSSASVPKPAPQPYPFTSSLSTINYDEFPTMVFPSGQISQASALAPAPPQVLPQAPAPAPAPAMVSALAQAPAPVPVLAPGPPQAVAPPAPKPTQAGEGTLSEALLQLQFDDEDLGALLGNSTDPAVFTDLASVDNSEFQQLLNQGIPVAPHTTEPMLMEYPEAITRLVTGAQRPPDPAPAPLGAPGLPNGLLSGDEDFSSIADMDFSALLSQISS

| Substance | binding signal (fold increase with TNF) (reduced by transfected P028F4 (4 uM)) | binding signal (fold increase with TNF) (reduced to less than 2-fold by P028F4) |
| --- | --- | --- |
| Gro-beta promoter chromatin | 3.5 |  |
| TNFAIP3/A20 promoter chromatin |  | 3.5 |

From patent publication US20120263651
